Experiment [1] deals with NCP-601 (nucleosome core particle with H3K9me3 and a single hemimethylated CpG site within the 3′-Widom 601 sequence) (human) (UniProt P04908). The experiment can be described thus: thermal stability assay (SYPRO Orange); 0.2 mg/ml protein; 20 mM Tris–HCl pH 7.5, 150 mM NaCl, 1 mM DTT; heated from 25 °C to 90 °C.
The target in experiment [2] is NCP-3′linker (nucleosome core particle with H3K9me3 and a single hemimethylated CpG site in the 3′-linker DNA) (human) (UniProt P04908). The experiment is described as above.
Experiment [3] addresses NCP-5′linker (nucleosome core particle with H3K9me3 and a single hemimethylated CpG site in the 5′-linker DNA) (human) (UniProt P04908). Described as above.
The target of experiment [4] is NCP-601 (nucleosome core particle with H3K9me3 and a single hemimethylated CpG site within the 3′-Widom 601 sequence) (human) (UniProt P04908). Kind of experiment: mass photometry; UHRF1 and NCP mixed at a UHRF1–NCP ratio of 1:4, on ice 30 min; final 25 nM in 20 mM Tris–HCl pH 7.0, 150 mM NaCl.
Experiment [5] deals with NCP-3′linker (nucleosome core particle with H3K9me3 and a single hemimethylated CpG site in the 3′-linker DNA) (human) (UniProt P04908). Described as above.
Experiment [6] concerns the target NCP-5′linker (nucleosome core particle with H3K9me3 and a single hemimethylated CpG site in the 5′-linker DNA) (human) (UniProt P04908). The description is as above.

What is called stoichiometry N is a count of units in the complex or per binding partner. As for “UHRF1 (ubiquitin-like with plant homeodomain and RING finger domain 1), full-length human, WT (from UniProt Q96T88 1-793) (enzyme)”, the Tm (denaturation temperature of UHRF1 bound to the NCP) in experiment [1] came out at 42.8 °C; in experiment [2], 44.8 °C; in experiment [3], 44.2 °C. In addition, the stoichiometry N in experiment [4], in experiment [5] and in experiment [6] was 1 each time.

Source of the values: paper PMC12704277.
